B4: His-STIC2 (mature STIC2, aa 49–182) (natural protein, A. thaliana, UniProt O82230 49-182, looked up)
chain: VNGLFGGGNKDNNSEDGQSKAGIFGNMQNMYETVKKAQMVVQVEAVRVQKELAAAEFDGYCAGELVKVTLSGNQQPIRTDITEAAMELGSEKLSQLVTEAYKDAHAKSVVAMKERMSDLAQSLGMPPGLSEGMK
notes: STIC2 of A. thaliana, mature protein aa 49–182 (transit peptide predicted with TargetP), in pET-Duet1; The N-terminal place of the tag is read from the printed name His-STIC2; also called recombinant mature His-STIC2; suppressor of tic40 protein 2; source: E. coli Rosetta2 (DE3) or BL21 (DE3), purified (HisTrap HP, native conditions); not shown: His tag, N-terminal, kept

How the values were obtained:
Conditions in all cases: both partners purified
GST-STIC2 E112A = target: T1, GST-STIC2 E112A (A. thaliana, UniProt O82230 49-182, E112A); experiment: pull-down; 20 µg GST-STIC2 variants with 20 µg Alb3C-His in PBS with 160 mM NaCl, 120 µl, room temperature; glutathione sepharose; eluates by immunoblot, coelution quantified with ImageJ
T1 construct: STIC2 of A. thaliana, mature protein aa 49–182, in pGEX4T3; source: E. coli Rosetta2 (DE3) or BL21 (DE3), purified (glutathione sepharose); not shown: GST, N-terminal, kept
T1 sequence (looked up): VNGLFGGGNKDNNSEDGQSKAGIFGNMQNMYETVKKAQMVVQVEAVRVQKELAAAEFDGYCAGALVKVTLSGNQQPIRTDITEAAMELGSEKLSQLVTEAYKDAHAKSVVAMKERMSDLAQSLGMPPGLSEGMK

GST-STIC2 E131G = target: T2, GST-STIC2 E131G (A. thaliana, UniProt O82230 49-182, E131G); experiment: as above
T2 construct: STIC2 of A. thaliana, mature protein aa 49–182, in pGEX4T3; The results speak only of E131; source: E. coli Rosetta2 (DE3) or BL21 (DE3), purified (glutathione sepharose); not shown: GST, N-terminal, kept
T2 sequence (looked up): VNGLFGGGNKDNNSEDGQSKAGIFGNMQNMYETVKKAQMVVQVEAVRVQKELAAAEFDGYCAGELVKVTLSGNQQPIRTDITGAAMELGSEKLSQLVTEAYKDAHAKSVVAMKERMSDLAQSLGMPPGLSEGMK

GST-STIC2 E112A K115A = target: T3, GST-STIC2 E112A K115A (A. thaliana, UniProt O82230 49-182, E112A | K115A); experiment: as above
T3 construct: STIC2 of A. thaliana, mature protein aa 49–182, in pGEX4T3; also called STIC2 E112A K115A double mutant; source: E. coli Rosetta2 (DE3) or BL21 (DE3), purified (glutathione sepharose); not shown: GST, N-terminal, kept
T3 sequence (looked up): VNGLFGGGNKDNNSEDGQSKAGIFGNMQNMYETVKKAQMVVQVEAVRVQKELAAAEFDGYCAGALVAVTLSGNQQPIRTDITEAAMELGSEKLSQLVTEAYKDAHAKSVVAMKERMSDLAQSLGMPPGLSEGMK

[1] = target: B4; experiment: ITC; His-STIC2 titrated (1.5 mM into 0.15 mM Alb3C-His or Alb3CΔIII-His; 1 mM into 0.1 mM Alb4C-His or Alb4CΔIII-His); 20 mM HEPES, 150 mM NaCl, pH 8.0, 25 °C; one-site binding model; two to five independent experiments
Alb4C-His R399G = target: T4, Alb4C-His R399G (UniProt Q9FYL3 334-499, R399G); experiment: pull-down; 20 µg GST-STIC2 variants with 20 µg Alb4C-His variants in PBS, 120 µl, room temperature; glutathione sepharose; eluates by immunoblot, coelution quantified with ImageJ
T4 construct: Alb4, C-terminal region aa 334–499, in pET29b; source: E. coli Rosetta2 (DE3) or BL21 (DE3), purified (HisTrap HP); not shown: His tag, C-terminal, kept
T4 sequence (looked up): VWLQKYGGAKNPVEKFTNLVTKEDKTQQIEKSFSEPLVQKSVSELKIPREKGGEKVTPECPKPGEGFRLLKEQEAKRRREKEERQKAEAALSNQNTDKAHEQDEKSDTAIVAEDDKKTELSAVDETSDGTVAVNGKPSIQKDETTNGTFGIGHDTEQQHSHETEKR

Alb4C-His F400G = target: T5, Alb4C-His F400G (UniProt Q9FYL3 334-499, F400G); experiment: as above
T5 construct: Alb4, C-terminal region aa 334–499, in pET29b; source: E. coli Rosetta2 (DE3) or BL21 (DE3), purified (HisTrap HP); not shown: His tag, C-terminal, kept
T5 sequence (looked up): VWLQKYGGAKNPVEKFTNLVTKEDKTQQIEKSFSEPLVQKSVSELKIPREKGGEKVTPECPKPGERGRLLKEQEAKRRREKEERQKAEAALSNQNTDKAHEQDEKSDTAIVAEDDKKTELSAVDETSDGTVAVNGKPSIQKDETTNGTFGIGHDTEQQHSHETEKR

Alb4C-His E407G = target: T6, Alb4C-His E407G (UniProt Q9FYL3 334-499, E407G); experiment: as above
T6 construct: Alb4, C-terminal region aa 334–499, in pET29b; source: E. coli Rosetta2 (DE3) or BL21 (DE3), purified (HisTrap HP); not shown: His tag, C-terminal, kept
T6 sequence (looked up): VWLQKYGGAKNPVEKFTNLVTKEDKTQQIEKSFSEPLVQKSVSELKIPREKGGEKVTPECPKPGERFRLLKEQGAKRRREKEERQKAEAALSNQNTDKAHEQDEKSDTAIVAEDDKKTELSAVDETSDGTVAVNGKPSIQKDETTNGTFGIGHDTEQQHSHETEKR

Alb4C-His R410G = target: T7, Alb4C-His R410G (UniProt Q9FYL3 334-499, R410G); experiment: as above
T7 construct: Alb4, C-terminal region aa 334–499, in pET29b; source: E. coli Rosetta2 (DE3) or BL21 (DE3), purified (HisTrap HP); not shown: His tag, C-terminal, kept
T7 sequence (looked up): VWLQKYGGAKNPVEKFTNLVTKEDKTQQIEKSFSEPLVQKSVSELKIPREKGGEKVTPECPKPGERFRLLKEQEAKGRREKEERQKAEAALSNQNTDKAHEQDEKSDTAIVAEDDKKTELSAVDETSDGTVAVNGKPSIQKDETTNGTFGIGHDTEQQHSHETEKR

Alb4C-His (aa 334–499) [2] = target: T8, Alb4C-His (aa 334–499) (UniProt Q9FYL3 334-499); experiment: as above
T8 construct: Alb4, stromal C-terminal region aa 334–499, in pET29b; also called C-terminal region of Alb4; source: E. coli Rosetta2 (DE3) or BL21 (DE3), purified (HisTrap HP); not shown: His tag, C-terminal, kept
T8 sequence (looked up): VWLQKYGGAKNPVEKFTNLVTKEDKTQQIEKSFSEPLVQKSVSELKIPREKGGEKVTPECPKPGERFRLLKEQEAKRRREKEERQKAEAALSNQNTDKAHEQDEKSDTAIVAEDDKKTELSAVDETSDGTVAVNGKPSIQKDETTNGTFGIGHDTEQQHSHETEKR

Alb4C-His (aa 334–499) [3] = target: T8, Alb4C-His (aa 334–499); experiment: ITC; His-STIC2 titrated (1.5 mM into 0.15 mM Alb3C-His or Alb3CΔIII-His; 1 mM into 0.1 mM Alb4C-His or Alb4CΔIII-His); 20 mM HEPES, 150 mM NaCl, pH 8.0, 25 °C; one-site binding model; two to five independent experiments
[4] = target: B4; experiment: peptide or protein array; pepspot membranes with 15mer peptides of Alb3 (aa 155–208, 282–462) and Alb4 (aa 139–192, 266–499); His-STIC2 5 µg/ml for 3 h at room temperature, TBST washes, detection with anti-His HRP conjugate

B1: Alb3C-His (aa 350–462) (domain or fragment, UniProt Q8LBP4 350-462, looked up)
chain: VYLRKLGGAKPNMDENASKIISAGRAKRSIAQPDDAGERFRQLKEQEKRSKKNKAVAKDTVELVEESQSESEEGSDDEEEEAREGALASSTTSKPLPEVGQRRSKRSKRKRTV
notes: Alb3, stromal C-terminal region aa 350–462, in pET29b; also called C-terminal region of Alb3; source: E. coli Rosetta2 (DE3) or BL21 (DE3), purified (HisTrap HP); not shown: His tag, C-terminal, kept
percent reduction of binding against GST-STIC2 (GST-STIC2 E112A): ~15% | percent reduction of binding against GST-STIC2 (GST-STIC2 E131G): ~80% | percent reduction of binding against GST-STIC2 (GST-STIC2 E112A K115A): ~80% | Kd [1]: 150 µM

B2: GST-STIC2 (natural protein, A. thaliana, UniProt O82230 49-182, looked up)
chain: VNGLFGGGNKDNNSEDGQSKAGIFGNMQNMYETVKKAQMVVQVEAVRVQKELAAAEFDGYCAGELVKVTLSGNQQPIRTDITEAAMELGSEKLSQLVTEAYKDAHAKSVVAMKERMSDLAQSLGMPPGLSEGMK
notes: STIC2 of A. thaliana, mature protein aa 49–182, in pGEX4T3; also called pGEX4T3-GST-STIC2; source: E. coli Rosetta2 (DE3) or BL21 (DE3), purified (glutathione sepharose); not shown: GST, N-terminal, kept
binding result (Alb4C-His R399G): binds | binding result (Alb4C-His F400G): binds | binding result (Alb4C-His E407G): binds | binding result (Alb4C-His R410G): binds

B3: GST-STIC2 K115A (natural protein, A. thaliana, UniProt O82230 49-182, looked up)
chain: VNGLFGGGNKDNNSEDGQSKAGIFGNMQNMYETVKKAQMVVQVEAVRVQKELAAAEFDGYCAGELVAVTLSGNQQPIRTDITEAAMELGSEKLSQLVTEAYKDAHAKSVVAMKERMSDLAQSLGMPPGLSEGMK
notes: STIC2 of A. thaliana, mature protein aa 49–182, in pGEX4T3; source: E. coli Rosetta2 (DE3) or BL21 (DE3), purified (glutathione sepharose); not shown: GST, N-terminal, kept
binding result (Alb4C-His (aa 334–499) [2]): binds

B4
Kd (Alb4C-His (aa 334–499) [3]): 17 µM

B5: Alb3 peptide aa 386–400 (15mer pepspot) (peptide, UniProt Q8LBP4 386-400, looked up)
peptide: GERFRQLKEQEKRSK
notes: largely Motif III; source: synthetic peptide, spot on a membrane (JPT Peptide Technologies)
binding result [4]: binds

B6: Alb4 peptide aa 394–408 (15mer pepspot) (peptide, UniProt Q9FYL3 394-408, looked up)
peptide: PKPGERFRLLKEQEA
notes: as for B5
binding result [4]: binds
